From patent publication US20130005012A1, “ENZYMATIC SYSTEM FOR MONOMER SYNTHESIS” (PHYTOGENE, INC., priority 2011, published 2013) come the findings set out here.

T1: FDC1 (Saccharomyces cerevisiae, UniProt Q03034)
T1 construct: 6xHis (N-terminal tag of vector pDEST17); made in house; host or cells: E. coli BL21(DE3)
T1 sequence (Q03034 1-503): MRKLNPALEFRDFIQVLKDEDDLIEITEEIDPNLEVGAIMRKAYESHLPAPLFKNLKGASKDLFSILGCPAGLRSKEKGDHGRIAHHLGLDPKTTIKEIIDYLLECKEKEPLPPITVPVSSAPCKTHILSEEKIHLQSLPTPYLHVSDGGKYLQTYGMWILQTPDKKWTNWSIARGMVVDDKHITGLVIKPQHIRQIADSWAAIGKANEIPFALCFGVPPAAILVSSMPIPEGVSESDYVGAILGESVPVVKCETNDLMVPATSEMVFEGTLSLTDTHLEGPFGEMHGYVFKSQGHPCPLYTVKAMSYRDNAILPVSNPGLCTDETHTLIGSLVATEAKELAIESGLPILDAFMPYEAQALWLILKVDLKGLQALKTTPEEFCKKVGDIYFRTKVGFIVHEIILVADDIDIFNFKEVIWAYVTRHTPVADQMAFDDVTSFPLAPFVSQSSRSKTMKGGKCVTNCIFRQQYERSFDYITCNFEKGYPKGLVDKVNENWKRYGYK

T2: yeast FDC (ferulic acid decarboxylase, FDC1, Saccharomyces cerevisiae) in prey vector pGADT7-Gateway (Saccharomyces cerevisiae, UniProt Q03034 1-503)
T2 construct: Yeast two-hybrid prey fusion expressed in Clontech Y2HGold cells; also called FDC (Prey vector); not shown: fusion partner encoded by yeast two-hybrid prey vector pGADT7-Gateway
T2 sequence: T1 sequence (Q03034 1-503)

B1: PAD1: phenylacrylic acid decarboxylase from S. cerevisiae, SEQ ID NO:10 encoded by SEQ ID NO:9 (protein, listed as Saccharomyces cerevisiae)
chain: MLLFPRRTNIAFFKTTGIFANFPLLGRTITTSPSFLTHKLSKEVTRASTSPPRPKRIVVAITGATGVALGIRLLQVLKELSVETHLVISKWGAATMKYETDWEPHDVAALATKTYSVRDVSACISSGSFQHDGMIVVPCSMKSLAAIRIGFTEDLITRAADVSIKENRKLLLVTRETPLSSIHLENMLSLCRAGVIIFPPVPAFYTRPKSLHDLLEQSVGRILDCFGIHADTFPRWEGIKSK
B2: yeast FDC (ferulic acid decarboxylase, FDC1, Saccharomyces cerevisiae) in bait vector pGBKT7-Gateway (enzyme)
chain: T1 sequence (Q03034 1-503)
notes: Yeast two-hybrid bait fusion expressed in Clontech Y2HGold cells; also called FDC (Bait vector); not shown: fusion partner encoded by yeast two-hybrid bait vector pGBKT7-Gateway
B3: yeast PAD1 (phenylacrylic acid decarboxylase, Saccharomyces cerevisiae) in bait vector pGBKT7-Gateway (enzyme)
chain: VAITGATGVALGIRLLQVLKELSVETHLVISKWGAATMKYETDWEPHDVAALATKTYSVRDVSACISSGSFQHDGMIVVPCSMKSLAAIRIGFTEDLITRAADVSIKENRKLLLVTRETPLSSIHLENMLSLCRAGVIIFPPVPAFYTRPKSLHDLLEQSVGRILDCFGIHADTFPRWEGIKSK
notes: Yeast two-hybrid bait fusion expressed in Clontech Y2HGold cells; also called PAD1 (Bait vector); not shown: fusion partner encoded by yeast two-hybrid bait vector pGBKT7-Gateway
B4: yeast PAD1 (phenylacrylic acid decarboxylase, Saccharomyces cerevisiae) in prey vector pGADT7-Gateway (enzyme)
chain: B3 chain
notes: Yeast two-hybrid prey fusion expressed in Clontech Y2HGold cells; also called PAD1 (Prey vector); not shown: fusion partner encoded by yeast two-hybrid prey vector pGADT7-Gateway

The target of one experiment is T1, FDC1. The experiment in a line: Effect of metal ions on activity of purified FDC1. The experiment is classed as biochemical. To be noted: 10 mM metal ion, 1.4 mM tCA, pH 6.5, 5 minutes at 30° C., versus control without metal ions. As for the experimental part: To study the effect of metal ions on FDC1 activity, we carried out reactions with various metal ions, including ZnSO4, FeCl3, MnCl2, MgSO4, CaCl2, MnSO4, and FeSO4. Reaction mixtures of 25 mM potassium phosphate buffer pH 6.5 containing 1.4 mM tCA, 5 mM DTT, 10 mM metal ion, and 0.5 mg purified FDC1 adjusted to a final volume of 1 mL were incubated for 5 minutes at 30° C. After the reaction, 1 mL of propanol was added to the reaction mixtures to solubilize styrene. The experimental control used the same conditions except the reaction mixture contained no metal ions. The experimental negative control used the same conditions except the reaction mixture contained no substrate. […] The effects of Zn^2+ and Fe^3+ on FDC1 activity were further investigated using EDTA to cancel out the effects of the metal ions. Reaction mixtures of 25 mM potassium phosphate buffer pH 6.5 containing 1.4 mM tCA, 5 mM DTT, 10 mM metal ion, 10 mM EDTA and 0.5 mg purified FDC1 were adjusted to a final volume of 1 mL, and were incubated for 5 minutes at 30° C. After the reaction, 1 mL of propanol was added to the reaction mixtures to solubilize styrene. The experimental control used the same conditions except the reaction mixture contained no metal ions or EDTA. The experimental negative control used the same conditions except the reaction mixture contained no substrate. […] Based on results presented in FIGS. 10A and 10B, enzyme activity of FDC1 can be increased by metal ions and it was not due to experimental artifact.

Experiment [1] has as its system cinnamic acid. The experiment in a line: Feeding cinnamic acid to Wat11 yeast expressing the enzyme, HPLC of products. To be noted: 2 mM cinnamic acid, extracted after 8 hours. Type of experiment: cell-based, S. cerevisiae. As for the experimental part: (§1) 0.8 ml of well-suspended cultures was taken out of the culture tube and 0.4 ml of ethyl acetate was added. The mixture was votexed at the maximum speed for half an hour and centrifuged at 15,000 rpm for 10 min at room temperature.
The extracted samples were analyzed by HPLC. HPLC was performed with an Agilent 1100 Series HPLC system using a SymmetryShield C18 column (Waters, 150×3.9 mm). The mobile phase consisted of solvent A (0.1% trifluoroacetic acid) and solvent B (acetonitrile). The gradient elution procedure was as follows: 0-5 min, 0% of B; 5-35 min, a linear gradient from 0% to 90% of B; 35-38 min, 90% of B; 38-40 min, 0% of B. The flow rate was 1.0 ml/min. The injection volume was 30 μl. Peaks for substrate and products areas were monitored at 260 nm. With this method, the retention times for cinnamic acid, p-coumaric acid, ferulic acid, styrene, 4-hydroxystyrene, and 4-vinylguaiacol (4-VG) were 21.5, 17.7, 17.7, 27.8, 22.3 and 22.1 min, respectively. […]
After transformation, 100 μl of the transgenic yeast culture was spread on SD-trp medium (Clontech, Mountain View, Calif.) and incubated at 30° C. for 3 days. […] 2 mM cinnamic acid was added to 2 d-old yeast culture and the products were extracted with ethyl acetate after 8 hours and analyzed by HPLC.

For experiment [2], the system named is cinnamic acid. The experiment in a line: Feeding cinnamic acid to E. coli BL21AI expressing the enzyme, HPLC of products. Conditions: 2 mM cinnamic acid, 37° C. Type of experiment: cell-based. How it is done:
as §1
(§2) The extracted samples were analyzed by HPLC. HPLC was performed with an Agilent 1100 Series HPLC system using a SymmetryShield C18 column (Waters, 150×3.9 mm). The mobile phase consisted of solvent A (0.1% trifluoroacetic acid) and solvent B (acetonitrile). The gradient elution procedure was as follows: 0-5 min, 0% of B; 5-35 min, a linear gradient from 0% to 90% of B; 35-38 min, 90% of B; 38-40 min, 0% of B. The flow rate was 1.0 ml/min. The injection volume was 30 μl. Peaks for substrate and products areas were monitored at 260 nm. With this method, the retention times for cinnamic acid, p-coumaric acid, ferulic acid, styrene, 4-hydroxystyrene, and 4-vinylguaiacol (4-VG) were 21.5, 17.7, 17.7, 27.8, 22.3 and 22.1 min, respectively.
Plasmid pDEST17-PAD1 was transformed into E. coli strain BL21AI competent cells (Invitrogen). An overnight culture (2 ml) was inoculated into 40 ml of LB medium supplemented with 100 µg/ml ampicillin. Bacteria were grown at 37° C. in a shaker at 250 rpm for 3 h and then 0.2% (w/v) arabinose was added to the culture, followed by the addition of 2 mM of cinnamic acid. […]

Experiment [3] relates to cinnamic acid. The experiment in a line: Comparison of PAD1, FDC and OHBA1 activities in E. coli fed 1-40 mM cinnamic acid. Type of experiment: cell-based. How it is done:
Sample (0.5 ml) was taken various treatments, and extracted with 0.3 ml of ethyl acetate. The upper phase was used for the analysis of the product styrene, and the lower phase for the analysis of cinnamic acid left in the medium.

Another experiment deals with p-coumaric acid. The experiment can be described thus: Feeding p-coumaric acid to Wat11 yeast expressing FDC, HPLC of products. The experiment is classed as cell-based, S. cerevisiae. How it is done: as §1, §2
Experiment [4] relates to ferulic acid. The experiment can be described thus: Feeding ferulic acid to Wat11 yeast expressing FDC, HPLC of products. Type of experiment: cell-based, S. cerevisiae. As for the experimental part:
as §1, §2

The subject of experiment [5] is ferulic acid. The experiment in a line: Feeding ferulic acid to E. coli BL21AI expressing FDC, HPLC of products. The experiment is classed as cell-based. As for the experimental part: as §1, §2
In E. coli, pDEST17-FDC was transformed into E. coli strain BL21AI competent cells (Invitrogen). An overnight culture (2 ml) was inoculated into 40 ml of LB medium supplemented with 100 µg/ml ampicillin. […] The induced culture was further incubated at 37° C. and samples were taken at different time points for the analysis.

In experiment [6] the target is T2, yeast FDC (ferulic acid decarboxylase, …). The experiment in a line: yeast two-hybrid, growth on SD-Trp-Leu-His plate (bait FDC, prey FDC). How it is done: (§3) We used yeast-two-hybrid system to test this hypothesis. […] Vectors pGBKT7-Gateway and pGADT7-Gateway are gifts from Dr. Brian P. Downes, Department of Biology, St Louis University (St Louis, Mo.). The resulting vectors were used to transform Clontech Y2HGold cells by one step transformation protocol as described in Example 4. 100 μl of the transformed cultures were spread on SD-Trp-Leu as well as SD-Trp-Leu-His plates and incubated at 30° C. for 3 days.

The target is the same in experiment [7]. The experiment in a line: yeast two-hybrid, growth on SD-Trp-Leu-His plate (bait PAD1, prey FDC). How it is done: as §3
Experiment [8] has as its target B2. The experiment can be described thus: yeast two-hybrid, growth on SD-Trp-Leu-His plate (bait FDC, prey PAD1). How it is done: as §3

For `[Ca+2].[Cl-].[Cl-]` [Ca^+2, CaCl2], the “effect on FDC1 activity (styrene produced)” value on FDC1 is reported as “increased the activity of FDC1”.
Same read-out and setting: the value for `[Cl][Fe]([Cl])[Cl]` [Fe^+3, FeCl3] was “increased the activity of FDC1”.
The same measure, in the same setting: the value for `O=S(=O)([O-])[O-].[Mg+2]` [Mg^+2, MgSO4] was “increased the activity of FDC1”.
On the same count and under the same terms, for `O=S(=O)([O-])[O-].[Zn+2]` [Zn^+2, ZnSO4] the value was “increased the activity of FDC1”.
Turning to B1, the “styrene production upon feeding of cinnamic acid” value is listed as “no styrene can be observed” in the experiment with cinnamic acid [1]; “no styrene production was observed” in the experiment on cinnamic acid [2]; “failed to produce any styrene” in the experiment with cinnamic acid [3] (E. coli in LB+Amp medium, 1-10 mM cinnamic acid).
As to B2, the “styrene production upon feeding of cinnamic acid” value is reported as “production of styrene” with cinnamic acid [1] and “Production of styrene was observed” in the experiment on cinnamic acid [2]. In addition, in the experiment on p-coumaric acid, the “4-hydroxystyrene production upon feeding of p-coumaric acid” value is “production of 4-hydroxystyrene”. Besides, the “4-VG production upon feeding of ferulic acid” value in the experiment with ferulic acid [4] is listed as “production of 4-VG”. The “4-vinylguaiacol (4-VG) production upon feeding of ferulic acid” value in the experiment with ferulic acid [5] is on record as “Production of 4-vinylguaiacol (4-VG) was also observed”. The molecule further yielded a styrene biosynthesis in the experiment on cinnamic acid [3] (E. coli, after feeding on cinnamic acid substrate for 2 h) of 94.6 mg/L. In experiment [6], the binding result is “binds”.
Turning to B3, in experiment [7], the binding result was “no binding”.
Consider B4, for which the binding result in experiment [8] is “no binding”.
